Measurements reported in publication PMC2829124.

Substrate: CCCCCCCCCCCCCC(=O)SCCNC(=O)CCNC(=O)[C@H](O)C(C)(C)COP(=O)(O)OP(=O)(O)OC[C@H]1O[C@@H](n2cnc3c(N)ncnc32)[C@H](O)[C@@H]1OP(=O)(O)O
Test: purified protein
Conditions: fatty acyl-CoA binding site

B1: N-Myristoyltransferase (LdNMT) (Leishmania donovani) (protein)
chain: MSRNPSNSDAAHAFWSTQPVPQTEDETEKIVFAGPMDEPKTVADIPEEPYPIASTFEWWTPNMEAADDIHAIYELLRDNYVEDDDSMFRFNYSEEFLQWALCPPSYIPDWHVAVRRKADKKLLAFIAGVPVTLRMGTPKYMKVKAQEKGQEEEAAKYDAPRHICEINFLCVHKQLREKRLAPILIKEVTRRVNRTNVWQAVYTAGVLLPTPYASGQYFHRSLNPEKLVEIRFSGIPAQYQKFQNPMAMLKRNYQLPNAPKNSGLREMKPSDVPQVRRILMNYLDNFDVGPVFSDAEISHYLLPRDGVVFTYVVENDKKVTDFFSFYRIPSTVIGNSNYNILNAAYVHYYAATSMPLHQLILDLLIVAHSRGFDVCNMVEILDNRSFVEQLKFGAGDGHLRYYFYNWAYPKIKPSQVALVML
- Km: 0.0175 ± 0.0029 µM
